Measurements reported in IntAct's records for PubMed 17828277.

B1: Microtubule-associated protein RP/EB family member 1 (Homo sapiens), Q15691 (parent)
chain: MAVNVYSTSVTSDNLSRHDMLAWINESLQLNLTKIEQLCSGAAYCQFMDMLFPGSIALKKVKFQAKLEHEYIQNFKILQAGFKRMGVDKIIPVDKLVKGKFQDNFEFVQWFKKFFDANYDGKDYDPVAARQGQETAVAPSLVAPALNKPKKPLTSSSAAPQRPISTQRTAAAPKAGPGVVRKNPGVGNGDDEAAELMQQVNVLKLTVEDLEKERDFYFGKLRNIELICQENEGENDPVLQRIVDILYATDEGFVIPDEGGPQEEQEEY
B2: CAP-Gly domain-containing linker protein 1 (Homo sapiens), P30622-1 (parent)
chain: MSMLKPSGLKAPTKILKPGSTALKTPTAVVAPVEKTISSEKASSTPSSETQEEFVDDFRVGERVWVNGNKPGFIQFLGETQFAPGQWAGIVLDEPIGKNDGSVAGVRYFQCEPLKGIFTRPSKLTRKVQAEDEANGLQTTPASRATSPLCTSTASMVSSSPSTPSNIPQKPSQPAAKEPSATPPISNLTKTASESISNLSEAGSIKKGERELKIGDRVLVGGTKAGVVRFLGETDFAKGEWCGVELDEPLGKNDGAVAGTRYFQCQPKYGLFAPVHKVTKIGFPSTTPAKAKANAVRRVMATTSASLKRSPSASSLSSMSSVASSVSSRPSRTGLLTETSSRYARKISGTTALQEALKEKQQHIEQLLAERDLERAEVAKATSHVGEIEQELALARDGHDQHVLELEAKMDQLRTMVEAADREKVELLNQLEEEKRKVEDLQFRVEEESITKGDLETQTKLEHARIKELEQSLLFEKTKADKLQRELEDTRVATVSEKSRIMELEKDLALRVQEVAELRRRLESNKPAGDVDMSLSLLQEISSLQEKLEVTRTDHQREITSLKEHFGAREETHQKEIKALYTATEKLSKENESLKSKLEHANKENSDVIALWKSKLETAIASHQQAMEELKVSFSKGLGTETAEFAELKTQIEKMRLDYQHEIENLQNQQDSERAAHAKEMEALRAKLMKVIKEKENSLEAIRSKLDKAEDQHLVEMEDTLNKLQEAEIKVKELEVLQAKCNEQTKVIDNFTSQLKATEEKLLDLDALRKASSEGKSEMKKLRQQLEAAEKQIKHLEIEKNAESSKASSITRELQGRELKLTNLQENLSEVSQVKETLEKELQILKEKFAEASEEAVSVQRSMQETVNKLHQKEEQFNMLSSDLEKLRENLADMEAKFREKDEREEQLIKAKEKLENDIAEIMKMSGDNSSQLTKMNDELRLKERDVEELQLKLTKANENASFLQKSIEDMTVKAEQSQQEAAKKHEEEKKELERKLSDLEKKMETSHNQCQELKARYERATSETKTKHEEILQNLQKTLLDTEDKLKGAREENSGLLQELEELRKQADKAKAAQTAEDAMQIMEQMTKEKTETLASLEDTKQTNAKLQNELDTLKENNLKNVEELNKSKELLTVENQKMEEFRKEIETLKQAAAQKSQQLSALQEENVKLAEELGRSRDEVTSHQKLEEERSVLNNQLLEMKKRESKFIKDADEEKASLQKSISITSALLTEKDAELEKLRNEVTVLRGENASAKSLHSVVQTLESDKVKLELKVKNLELQLKENKRQLSSSSGNTDTQADEDERAQESQIDFLNSVIVDLQRKNQDLKMKVEMMSEAALNGNGDDLNNYDSDDQEKQSKKKPRLFCDICDCFDLHDTEDCPTQAQMSEDPPHSTHHGSRGEERPYCEICEMFGHWATNCNDDETF

Variants of: B1
Details: with dctn1_human DCTN1, Q14203
Target sequence in this assay (Q14203 whole entry): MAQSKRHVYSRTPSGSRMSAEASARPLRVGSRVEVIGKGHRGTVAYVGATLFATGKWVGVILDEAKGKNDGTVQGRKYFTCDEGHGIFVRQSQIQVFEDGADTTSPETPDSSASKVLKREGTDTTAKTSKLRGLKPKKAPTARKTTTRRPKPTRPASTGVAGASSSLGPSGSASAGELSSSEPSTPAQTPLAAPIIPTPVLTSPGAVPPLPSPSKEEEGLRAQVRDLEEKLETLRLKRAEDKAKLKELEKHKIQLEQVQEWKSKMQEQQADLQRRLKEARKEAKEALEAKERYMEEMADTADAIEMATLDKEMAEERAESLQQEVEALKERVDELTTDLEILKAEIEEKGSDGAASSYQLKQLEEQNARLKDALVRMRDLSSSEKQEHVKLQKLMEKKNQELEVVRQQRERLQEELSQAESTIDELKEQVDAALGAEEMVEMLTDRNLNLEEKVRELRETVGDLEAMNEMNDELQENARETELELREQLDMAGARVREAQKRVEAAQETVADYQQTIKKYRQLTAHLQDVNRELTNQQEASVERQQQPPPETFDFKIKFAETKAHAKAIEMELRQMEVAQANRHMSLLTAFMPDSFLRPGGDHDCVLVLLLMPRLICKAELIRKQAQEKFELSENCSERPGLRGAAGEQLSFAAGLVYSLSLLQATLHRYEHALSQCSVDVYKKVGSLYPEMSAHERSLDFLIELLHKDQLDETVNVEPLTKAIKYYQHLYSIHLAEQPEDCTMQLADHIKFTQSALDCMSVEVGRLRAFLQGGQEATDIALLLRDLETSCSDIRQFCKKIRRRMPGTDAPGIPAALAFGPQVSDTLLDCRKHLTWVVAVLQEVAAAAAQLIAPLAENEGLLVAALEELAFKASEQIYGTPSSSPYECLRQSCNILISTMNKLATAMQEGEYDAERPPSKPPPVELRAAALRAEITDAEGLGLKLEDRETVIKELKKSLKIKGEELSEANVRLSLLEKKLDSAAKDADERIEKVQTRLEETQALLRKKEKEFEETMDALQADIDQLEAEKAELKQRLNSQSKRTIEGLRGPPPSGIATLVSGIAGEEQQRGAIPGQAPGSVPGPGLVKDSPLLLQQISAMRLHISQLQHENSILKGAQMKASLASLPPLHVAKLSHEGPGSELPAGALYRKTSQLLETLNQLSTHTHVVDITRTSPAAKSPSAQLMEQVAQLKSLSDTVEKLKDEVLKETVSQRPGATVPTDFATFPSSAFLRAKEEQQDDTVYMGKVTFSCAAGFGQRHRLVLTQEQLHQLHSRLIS

| Variant | effect of a mutation on the interaction |
| --- | --- |
| MAVNVYSTSVTSDNLSRHDMLAWINESLQLNLTKIEQLCSGAAYCQFMDMLFPGSIALKKVKFQAKLEHEYIQNFKILQAGFKRMGVDKIIPVDKLVKGKFQDNFEFVQWFKKFFDANYDGKDYDPVAARQGQETAVAPSLVAPALNKPKKPLTSSSAAPQRPISTQRTAAAPKAGPGVVRKNPGVGNGDDEAAELMQQVNVLKLTVEDLEKERDFYFGKLRNIELICQENEGENDPVLQRIVDILYATDEGFVIPDEGGPQEEQEEG [Y268G] | decreasing interaction strength |
| MAVNVYSTSVTSDNLSRHDMLAWINESLQLNLTKIEQLCSGAAYCQFMDMLFPGSIALKKVKFQAKLEHEYIQNFKILQAGFKRMGVDKIIPVDKLVKGKFQDNFEFVQWFKKFFDANYDGKDYDPVAARQGQETAVAPSLVAPALNKPKKPLTSSSAAPQRPISTQRTAAAPKAGPGVVRKNPGVGNGDDEAAELMQQVNVLKLTVEDLEKERDFYFGKLRNIELICQENEGENDPVLQRIVDILYATDEGFVIPDEGGPQEEQEEI [Y268I] | decreasing interaction strength |

Variants of: B2
Details: with dctn1_human DCTN1, Q14203
Target sequence in this assay (Q14203 whole entry): as the sequence (Q14203 whole entry) above

| Variant | effect of a mutation on the interaction |
| --- | --- |
| I1410D | decreasing interaction strength |
| I1410H | decreasing interaction strength |
